From patent publication US8609611B2, “Synthesis of small particles” (MAP Pharmaceuticals, Inc., priority 2001, dated 2013)
Like-named read-outs stand apart in the source and are kept apart here.

Legend:
[1] = Size exclusion chromatography: biochemical integrity, monomer content; type: physicochemical; settings: by anti-solvent used in processing
Protocol: A protein-Pak 125 column (Waters, USA) was used for insulin. The mobile phase consisted of 50 mM sodium phosphate buffer at pH 3 with 300 mM sodium chloride. The powder samples were dissolved to prepare 1 mg/mL solution in deionised water by gentle shaking for 10 minutes to have complete dissolution. The supernatant was filtered through […] membrane filter and then injected into the HPLC column. […] The software Millennium 3.5 was used in the quantification of the monomer content.

[2] = Median particle size by laser diffraction; type: physicochemical
Text: These fine insulin particles may aggregate to form larger particles due to intermolecular interaction between the molecules. […] Insulin precipitated as nano-sized particles, was also agglomerated to micron-sized particles.

[3] = values reported in the literature; cited from earlier work
[4] = Size of precipitated primary particles (SEM images); type: physicochemical
Text: These fine insulin particles may aggregate to form larger particles due to intermolecular interaction between the molecules.

[5] = Aerosol performance by Cascade Impactor (5 stage Marple-Miller Impactor), fine particle mass; type: physicochemical; settings: 60 L/min, Dinkihaler, FIG. 6
Protocol: In order to determine the aerosol performance of the collected fine protein particles, in vitro testing of the particles was assessed using a 5 stage Marple-Miller Impactor (Model 160, MSP Corporation, USA) with cut-off diameters of 10.0, 5.0, 2.5, 1.25, and 0.625 μm. The Marple-Miller impactor consisted of a stainless steel inlet throat, five impaction stages and an integral filter stage. The stages were previously coated with propylene glycol/methanol (50:50) to prevent particle bounce, thus minimising the probability of carry over of coarse particles onto lower stages.
A mass of 10-20 mg of insulin was weighed into a gelatin capsule (size 3, Park Davis, Australia) and was immediately dispersed by a powder inhaler device, Dinkihaler (Aventis, Frankfurt, Germany) into the Marple Miller Impactor at 60 L/min using a vacuum source (ERWEKA GMBH, Germany). The fraction of the protein recovered in each stage was calculated by measuring the absorbance of the protein solution against the absorbance of a standard 1% solution of insulin.

Substance	retention of biological activity as indicated by the in vitro test for monomer content [1]	median particle size (laser diffraction) of agglomerated powder [2] [μm]	median particle size (laser diffraction) of agglomerated powder ([2]; listed as Insulin)	maximum FPM for insulin obtained by other methods [3] [%]	size of nano-sized particles as precipitated ([4]; modified (dual chamber) ASES apparatus)	size of nano-sized particles as precipitated ([4]; single-stage apparatus)	fine particle fraction (%<5 μm) [5]
CO2-ethanol: Insulin particles precipitated from aqueous solution using CO2-20 mol % ethanol as anti-solvent	significant deactivation						
Ethane-ethanol	retention of biological activity						
insulin: Low endotoxin bovine insulin (Sigma), micronised from aqueous solution by the ASES process into fine particles		5	about 5 μm	≤ 10	50-500 nm	50-500 nm	at least 42%
